In this data set the target is T1, MBP-WRKY21 (Oryza sativa, UniProt Q5FZT4 1-280).
T1 sequence: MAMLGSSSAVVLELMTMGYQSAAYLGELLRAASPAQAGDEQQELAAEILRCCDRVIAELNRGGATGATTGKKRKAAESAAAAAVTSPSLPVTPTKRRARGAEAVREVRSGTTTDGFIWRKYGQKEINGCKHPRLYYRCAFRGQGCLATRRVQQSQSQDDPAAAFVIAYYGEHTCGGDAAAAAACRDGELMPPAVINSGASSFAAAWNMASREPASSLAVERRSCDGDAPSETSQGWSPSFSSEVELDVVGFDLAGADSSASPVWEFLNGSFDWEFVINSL
The experiment in a line: EMSA. Background: Mobility shift assays separate free from complexed probe on a gel.

Residue numbers refer to the chain shown, from its start.

B1: F2 (Wz and Wy W-boxes) (dsDNA)
DNA 1: TTTTAATAGATGACGCCGTTGACTTTTTCTTACATATTTGACCATTCGTCTTATCCAAAA
DNA 2: TTTTGGATAAGACGAATGGTCAAATATGTAAGAAAAAGTCAACGGCGTCATCTATTAAAA
Consider B1, for which the binding result is on record as “binds”.

B2: F2-m (Wz and Wy mutated) (dsDNA)
DNA 1: B1 DNA 1 with C23A, C42A
DNA 2: B1 DNA 2 with G19T, G38T
Consider B2, for which the binding result is “no binding”.

Values taken from PMC7820984.
